Results on 2 molecules are retold here after patent US20230017777, “MONOCYTE AND MACROPHAGE BINDING APTAMERS AND THEIR APPLICATION” (University of Washington, published 2023).

In data set [1] the target is T1, CD14 (UniProt P08571 P08571:20-345).
T1 sequence: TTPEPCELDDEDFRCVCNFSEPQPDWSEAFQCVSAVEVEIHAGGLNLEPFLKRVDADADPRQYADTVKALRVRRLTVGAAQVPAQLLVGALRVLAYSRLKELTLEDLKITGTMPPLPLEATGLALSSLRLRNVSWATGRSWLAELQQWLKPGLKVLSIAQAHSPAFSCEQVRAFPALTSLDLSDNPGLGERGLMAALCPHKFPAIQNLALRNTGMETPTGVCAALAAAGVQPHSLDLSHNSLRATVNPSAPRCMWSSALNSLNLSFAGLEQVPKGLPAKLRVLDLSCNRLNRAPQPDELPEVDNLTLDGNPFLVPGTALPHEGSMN
The data set is described as follows: BLI; nonspecific aptamer control. As to conditions: label: Cy5 (flow cytometry).

The target of data set [2] is T1, CD14. The data set is described as follows: BLI; no significant binding over SCRM; figure legend calls it SPR, text says BLI (Octet Red96). As to conditions: label: Cy5.

B1: SCRM (scrambled / nonspecific control aptamer) (ssDNA)
DNA: ATCCAGAGTGACGCAGCAATGATAGTGACGTACGGACTAGGGATCACCCATATCATGTAGAGGAAGTACGTGGACACGGTGGCTTAGT
With B1, in the data set with CD14 [1], the binding result is given as “no binding”.

B2: A2 (ssDNA)
DNA: ATCCAGAGTGACGCAGCAGAAGAGTAGATGAAACGTTTTTTCGCCCGATAAAAGGGACGTGCGTCAGACATGGACACGGTGGCTTAGT
On to B2, for which the binding result with CD14 [2] is listed as “no binding”.
